Patent publication US20090117640A1
Blank lines part the entries; values can stand above or below the binder they belong to.

Columns and labels:
Test in all cases: cell-based or functional assay
[1] = biological target: Human growth hormone (human) (UniProt P01241)
hGH mutant Q141N (human) = hGH mutant Q141N (human) (UniProt P01241)
hGH mutant Q40N (human) = hGH mutant Q40N (human) (UniProt P01241)
Sequence of hGH mutant Q40N (human) (P01241 27-217 Q66N): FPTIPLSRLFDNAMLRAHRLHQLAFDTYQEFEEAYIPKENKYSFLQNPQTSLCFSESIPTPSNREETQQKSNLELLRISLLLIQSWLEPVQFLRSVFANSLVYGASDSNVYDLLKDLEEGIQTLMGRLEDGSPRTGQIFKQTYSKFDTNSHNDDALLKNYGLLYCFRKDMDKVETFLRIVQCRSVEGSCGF

Sequence of hGH mutant Q141N (human) (P01241 27-217 Q167N): as the sequence (P01241 27-217 Q66N) above, with N40Q, Q141N counted along it
Sequence of Human growth hormone (human) (P01241 27-217 limits assumed): as the sequence (P01241 27-217 Q66N) above, with N40Q counted along it

About 50% hGH reacted at t=, enzyme 0.07 µM (min (printed in h and min)) [1]: 75
Transamination Gln 40 vs Gln 141 (Gln 40 share), CE, enzyme 0.07 µM (share of mono-transamination products) [1]: 15
Transamination Gln 40 vs Gln 141 (Gln 141 share), CE, enzyme 0.07 µM (share of mono-transamination products) [1]: 85
Gln 40 vs Gln 141 (normalized), Gln 40 share (normalized ratio) (hGH mutant Q141N (human)): 21
HPLC peak area of remaining hGH-Q141N (area (arbitrary units)) (hGH mutant Q141N (human)): 1290
Gln 40 vs Gln 141 (normalized), Gln 141 share (normalized ratio) (hGH mutant Q40N (human)): 79
HPLC peak area of remaining hGH-Q40N (area (arbitrary units)) (hGH mutant Q40N (human)): 519
B1: TGase from S. mobaraense (wild type) (enzyme)
chain: DSDDRVTPPAEPLDRMPDPYRPSYGRAETVVNNYIRKWQQVYSHRDGRKQQMTEEQREWLSYGCVGVTWVNSGQYPTNRLAFASFDEDRFKNELKNGRPRSGETRAEFEGRVAKESFDEEKGFQRAREVASVMNRALENAHDESAYLDNLKKELANGNDALRNEDARSPFYSALRNTPSFKERNGGNHDPSRMKAVIYSKHFWSGQDRSSSADKRKYGDPDAFRPAPGTGLVDMSRDRNIPRSPTSPGEGFVNFDYGWFGAQTEADADKTVWTHGNHYHAPNGSLGAMHVYESKFRNWSEGYSDFDRGAYVITFIPKSWNTAPDKVKQGWP

About 50% hGH reacted at t=, enzyme 3.90 µM [1]: < 30 min
Transamination Gln 40 vs Gln 141 (Gln 40 share), CE, enzyme 3.90 µM (share of mono-transamination products) [1]: 45
Transamination Gln 40 vs Gln 141 (Gln 141 share), CE, enzyme 3.90 µM (share of mono-transamination products) [1]: 55
B2: Y75E TGase (enzyme)
chain: DSDDRVTPPAEPLDRMPDPYRPSYGRAETVVNNYIRKWQQVYSHRDGRKQQMTEEQREWLSYGCVGVTWVNSGQEPTNRLAFASFDEDRFKNELKNGRPRSGETRAEFEGRVAKESFDEEKGFQRAREVASVMNRALENAHDESAYLDNLKKELANGNDALRNEDARSPFYSALRNTPSFKERNGGNHDPSRMKAVIYSKHFWSGQDRSSSADKRKYGDPDAFRPAPGTGLVDMSRDRNIPRSPTSPGEGFVNFDYGWFGAQTEADADKTVWTHGNHYHAPNGSLGAMHVYESKFRNWSEGYSDFDRGAYVITFIPKSWNTAPDKVKQGWP

About 50% hGH reacted at t=, enzyme 0.39 µM [1]: 30 min
Transamination Gln 40 vs Gln 141 (Gln 40 share), CE, enzyme 0.39 µM (share of mono-transamination products) [1]: 30
Transamination Gln 40 vs Gln 141 (Gln 141 share), CE, enzyme 0.39 µM (share of mono-transamination products) [1]: 70
B3: Y302R TGase (enzyme)
chain: DSDDRVTPPAEPLDRMPDPYRPSYGRAETVVNNYIRKWQQVYSHRDGRKQQMTEEQREWLSYGCVGVTWVNSGQYPTNRLAFASFDEDRFKNELKNGRPRSGETRAEFEGRVAKESFDEEKGFQRAREVASVMNRALENAHDESAYLDNLKKELANGNDALRNEDARSPFYSALRNTPSFKERNGGNHDPSRMKAVIYSKHFWSGQDRSSSADKRKYGDPDAFRPAPGTGLVDMSRDRNIPRSPTSPGEGFVNFDYGWFGAQTEADADKTVWTHGNHYHAPNGSLGAMHVYESKFRNWSEGRSDFDRGAYVITFIPKSWNTAPDKVKQGWP

About 50% hGH reacted at t=, enzyme 7.20 µM (min (printed in h and min)) [1]: 90
Transamination Gln 40 vs Gln 141 (Gln 40 share), CE, enzyme 7.20 µM (share of mono-transamination products) [1]: 65
Transamination Gln 40 vs Gln 141 (Gln 141 share), CE, enzyme 7.20 µM (share of mono-transamination products) [1]: 35
B4: Y75E, Y302R TGase (enzyme)
chain: DSDDRVTPPAEPLDRMPDPYRPSYGRAETVVNNYIRKWQQVYSHRDGRKQQMTEEQREWLSYGCVGVTWVNSGQEPTNRLAFASFDEDRFKNELKNGRPRSGETRAEFEGRVAKESFDEEKGFQRAREVASVMNRALENAHDESAYLDNLKKELANGNDALRNEDARSPFYSALRNTPSFKERNGGNHDPSRMKAVIYSKHFWSGQDRSSSADKRKYGDPDAFRPAPGTGLVDMSRDRNIPRSPTSPGEGFVNFDYGWFGAQTEADADKTVWTHGNHYHAPNGSLGAMHVYESKFRNWSEGRSDFDRGAYVITFIPKSWNTAPDKVKQGWP

Gln 40 vs Gln 141 (normalized), Gln 40 share (normalized ratio) (hGH mutant Q141N (human)): 11
HPLC peak area of remaining hGH-Q141N (area (arbitrary units)) (hGH mutant Q141N (human)): 1160
Gln 40 vs Gln 141 (normalized), Gln 141 share (normalized ratio) (hGH mutant Q40N (human)): 89
HPLC peak area of remaining hGH-Q40N (area (arbitrary units)) (hGH mutant Q40N (human)): 375
B5: TGase from Streptoverticillium ladakanum (enzyme)
chain: DSDERVTPPAEPLDRMPDPYRPSYGRAETIVNNYIRKWQQVYSHRDGRKQQMTEEQREWLSYGCVGVTWVNSGQYPTNRLAFAFFDEDKYKNELKNGRPRSGETRAEFEGRVAKDSFDEAKGFQRARDVASVMNKALENAHDEGAYLDNLKKELANGNDALRNEDARSPFYSALRNTPSFKDRNGGNHDPSKMKAVIYSKHFWSGQDRSGSSDKRKYGDPEAFRPDRGTGLVDMSRDRNIPRSPTSPGESFVNFDYGWFGAQTEADADKTVWTHGNHYHAPNGSLGAMHVYESKFRNWSDGYSDFDRGAYVVTFVPKSWNTAPDKVKQGWP
